In assay [1] the target is CD33 on human CD33(+) cells (human, UniProt P20138 18-364). Briefly: cell-based or functional assay.
For the next assay, the target named is T1, CD3 on activated T cells (human, UniProt P07766 23-207).
T1 construct: whole, on cells; CD3 complex on cells; the rest of the complex is not described; also called CD3 receptor
Briefly: flow cytometry on activated T cells, 4 C, secondary antibody, MFI. The protocol:
FIG. 13 depicts binding properties of an exemplary CD33-CD3 IgG-scFv (BsAb) to CD33 and CD3. (A) MOLM13 cells were reacted for 30 min at 4 C.° using decreasing doses of hM195 (anti-CD33 IgG), the heterodimeric BsAb, and an exemplary CD33-CD3 IgG-scFv. Cells were washed and immunostained with a fluorochrome-conjugated secondary antibody and mean fluorescence intensity (MFI) assayed by flow cytometry. (B) MOLM13 cells were reacted for 30 min, 4 h or 24 h at 37 C.° or 4 C.° with 1 μg/ml of hM195 (anti-CD33 IgG), the heterodimeric IgG BsAb, and exemplary CD33-CD3 IgG-scFv. Cells were washed and immunostained with a fluorochrome-conjugated secondary antibody at 4 C.°. After washing the unbound antibody, MFI was analyzed by flow cytometry. (C) Activated T cells were reacted for 30 min at 4 C.° with decreasing doses of hOKT3 (anti-CD3 IgG), the heterodimeric BsAb, and exemplary CD33-CD3 IgG-scFv. Cells were washed and immunostained with a fluorochrome-conjugated secondary antibody and MFI analyzed measured by flow cytometry.
In general terms: Flow cytometry measures light scatter and fluorescence of single cells or particles in a stream.

CD33 on human CD33(+) cells, sequence (P20138 18-364): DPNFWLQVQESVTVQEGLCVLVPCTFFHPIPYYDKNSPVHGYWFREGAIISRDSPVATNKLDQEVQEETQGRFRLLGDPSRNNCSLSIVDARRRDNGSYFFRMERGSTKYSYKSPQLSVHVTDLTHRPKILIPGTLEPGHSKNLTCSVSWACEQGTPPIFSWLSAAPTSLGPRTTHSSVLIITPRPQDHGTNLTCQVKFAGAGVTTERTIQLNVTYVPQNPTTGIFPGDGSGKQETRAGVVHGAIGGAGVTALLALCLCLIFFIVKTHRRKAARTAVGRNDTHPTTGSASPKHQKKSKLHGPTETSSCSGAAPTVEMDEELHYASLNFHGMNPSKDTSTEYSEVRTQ
T1 sequence (P07766 23-207): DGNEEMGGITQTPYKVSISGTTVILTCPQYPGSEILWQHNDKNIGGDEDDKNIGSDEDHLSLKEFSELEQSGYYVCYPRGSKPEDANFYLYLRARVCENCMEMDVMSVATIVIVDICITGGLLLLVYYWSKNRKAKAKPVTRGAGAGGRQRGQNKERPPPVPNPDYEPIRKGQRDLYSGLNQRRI

B1: CD33-BsAb (BiClone 133), exemplary CD33-CD3 IgG-scFv bispecific antibody agent (bispecific antibody)
heavy: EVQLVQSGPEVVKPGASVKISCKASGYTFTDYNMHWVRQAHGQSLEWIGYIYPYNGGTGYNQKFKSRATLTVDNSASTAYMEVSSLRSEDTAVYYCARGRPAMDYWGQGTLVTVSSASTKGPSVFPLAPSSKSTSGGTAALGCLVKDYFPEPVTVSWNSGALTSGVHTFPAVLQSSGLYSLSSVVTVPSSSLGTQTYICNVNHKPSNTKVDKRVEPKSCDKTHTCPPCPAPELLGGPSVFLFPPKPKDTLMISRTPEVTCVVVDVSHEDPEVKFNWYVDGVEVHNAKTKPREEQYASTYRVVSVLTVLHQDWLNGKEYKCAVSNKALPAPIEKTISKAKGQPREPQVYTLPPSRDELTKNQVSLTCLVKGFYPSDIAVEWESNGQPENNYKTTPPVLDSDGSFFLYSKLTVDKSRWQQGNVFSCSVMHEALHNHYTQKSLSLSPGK
light: EIVLTQSPATLSVSLGERATISCRASESVDNYGISFMNWFQQKPGQPPRLLIYAASNQGSGVPARFSGSGPGTDFTLTISSMEPEDFAMYFCQQSKEVPWTFGGGTKLEIKRTVAAPSVFIFPPSDEQLKSGTASVVCLLNNFYPREAKVQWKVDNALQSGNSQESVTEQDSKDSTYSLSSTLTLSKADYEKHKVYACEVTHQGLSSPVTKSFNRGECTSGGGGSGGGGSGGGGSQVQLVQSGGGVVQPGRSLRLSCKASGYTFTRYTMHWVRQAPGKCLEWIGYINPSRGYTNYNQKFKDRFTISRDNSKNTAFLQMDSLRPEDTGVYFCARYYDDHYSLDYWGQGTPVTVSSGGGGSGGGGSGGGGSGGGGSGGGGSGGGGSDIQMTQSPSSLSASVGDRVTITCSASSSVSYMNWYQQTPGKAPKRWIYDTSKLASGVPSRFSGSGSGTDYTFTISSLQPEDIATYYCQQWSSNPFTFGCGTKLQITR
notes: IgG-scFv format, tetravalent (2+2): two arms to CD33 and two to CD3; also called CD33-specific BsAb; anti-CD33 BsAb
For the molecule B1, in assay [1], the “EC50 of T cell cytotoxicity (lysis of MOLM13 cells)” value came out at 2.4 pM; the “EC50 of T cell cytotoxicity, 4-hour 51Cr release assay, HL60 AML cells” value came out at 1.1 pM; the “TDCC potency, fold against the heterodimer, 4 h chromium release assay, THP1 and MOLM13 cells” value is 12 fold. In addition, in the assay with CD3 on activated T cells, the “fold weaker binding (against heterodimer)” value is 2.5 fold and the “fold weaker binding (against huOKT3)” value was found to be 27 fold.

These data come from patent US20200297764A1 (Memorial Sloan Kettering, published 2020).
